{"source": "patent CN116789813A", "binders": {"B1": {"name": "全人源Hla单克隆抗体Hla-38 (antibody, V domains shown)", "VH": "QVQLLESGGGVVQPGRSLRLSCIVSGFDLNSFAMHWVRQPPGKGLEWVAVIWHDGSERFYAASVKGRFTISRDTSRNTLFLQMNSLRVEDTAVYYCAKSGDYYENSGYFGSWGQGALVTVSS", "VL": "ELVLTQSPATLSVSPGERATLSCRASQSVGNDLAWYQQKPGQAPRLLIYGASTRATGIPARFSGSGFGTEFTLTISSLQSEDFAVYYCQQYNNWWTFGQGTKVDIK"}}, "key": {"[1]": {"molecular_target": "野生型金黄色葡萄球菌α-溶血素(wtHla) (Staphylococcus aureus (strain MRSA 252))", "assay": "cell-based or functional assay"}, "[2]": {"molecular_target": "野生型金黄色葡萄球菌α-溶血素(wtHla) (Staphylococcus aureus (strain MRSA 252))", "assay": "ELISA, wtHla coated at 2μg/mL, anti-human IgG Fab-HRP detection"}}, "data": [{"binder": "B1", "values": [{"measurement": "保护率 (mice injected i.p. with 15μg wtHla pre-incubated with 2.5μg antibody)", "setting": "[1]", "result": "< 30", "unit": "%"}, {"measurement": "保护率 (mice injected i.p. with 15μg wtHla pre-incubated with 5μg antibody)", "setting": "[1]", "result": "< 30", "unit": "%"}, {"measurement": "保护率 (mice injected i.p. with 15μg wtHla pre-incubated with 10μg antibody)", "setting": "[1]", "result": 50, "unit": "%"}, {"measurement": "小鼠生存率 (mice injected i.p. with 15μg wtHla pre-incubated with 20μg antibody)", "setting": "[1]", "result": "> 80", "unit": "%"}, {"measurement": "EC50", "setting": "[2]", "result": 0.33, "unit": "µg/mL"}]}]}
